Results as given in article PMC7148328.

Biological target: T1, His-Dbv6 (Nonomuraea gerenzanensis) (UniProt Q7WZ85)
T1 sequence: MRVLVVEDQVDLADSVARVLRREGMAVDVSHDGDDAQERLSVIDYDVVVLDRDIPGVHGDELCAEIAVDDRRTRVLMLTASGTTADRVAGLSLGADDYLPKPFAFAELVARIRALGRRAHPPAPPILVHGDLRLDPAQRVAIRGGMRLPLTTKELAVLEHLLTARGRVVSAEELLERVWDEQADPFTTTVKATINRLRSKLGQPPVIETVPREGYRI
Experiment: EMSA
Conditions: 12.5 mM Tris-HCl pH 7.5, 10% glycerol, 62.5 mM KCl, 0.75 mM DTT, 5 mM MgCl2, 20 uL, 4 C; 2.8-14 ug Dbv6 (legend: 0.5-2 mM), 100 ng DNA (legend: …)

GCAGGTCGGAAGGGACATCTGTTCGGTGGGTGCCGGGCGCTCCATGGCAACTCCCGCGTCATCGAGGTGCTGCGCAGCCCTCGAAGGTCGCACCCGCGGACGAGAGCCTGCTTGATCGCAAGCGTGCTCAACGGACTCGATGTCTACAAGCCGGTCCAGGTGAACGCTTGGTCAC (double strand) [updbv24]
binding: binds

GCATCGGTCTTATCCGAAACTAGGGGGGTGGATGTCCGGGATAGGGGGTGGTTCGACCTGCACAGCCTCCTTTAACCTTCCGGAGGAAGGCCTAACCGAAAGTCGGAGTGATCGGAATGCTAACGGGAAGCGTTCTGCAATTCGATGAGGTAGACGGCTACGGATTCGCGGCGACAGCGTCCAATTCTTTGCCGCGTGGAGTTGCCGAAGAAAAGAGGATGCGACG (double strand) [updbv4]
binding: binds

GCAGGAATGGGAAAGGATCTTGCGCGGAGTGCCGCCGCATTGGGGCACCGTTGTCGCGAGATGCGCCAGGGATCATGCCCAGATCTGGGCAGCGTTCGCGGATCGCCTGGAGGGGCGGGCGACCGATCTGGCCGCTGGATGAGCACGAGTGGATGAGCCGGGCGGCCGTATGTAGAGCGACGGGACCAGGACCAGATCAGGCACACGGCAAACCAAGTCGACGAACCGCTTGGGGGACGAGCAAGAGTGCTGTTCGGGCGAGATCGTGAACTGAAGAGTCTGACGAGGTTGCTCGATTC (double strand) [updbv3]
binding: binds

CCTTCAGCAAACCTCCGAACGGCGACACTATGGCCATGCGGGACTCCTCTCACACGCGCACGCAAGTCAGCGACCTCAATCGTGCTGAGCGGAGCCGATGTCCACGAGTGGGTCCAACTGAACAGTTCGCGCGCTTGGACGCGTTCACCGGTGGTGGTGACCAAGCGTTCACCTGGAC (double strand) [updbv23]
binding: binds

CATTCGTGTCGCCGTCTCGATCGGGGGCTGTCAGTCTGACACCATAGCTCGCGTCCGGTCGATCCTCGAGTTGCCGTCGGGGACGGGCGGGACGTGCCAGCCGTGGAAGCGCAGTGCCTCGGTGAGCCGGCCGGTGTCCTCCGGGCGCACGGAGACCTCGACCA (double strand) [updbv6]
binding: no binding

TGAAGGCGACGATCAACCGGCTGCGCTCGAAGCTCGGCCAGCCGCCGGTGATCGAAACCGTCCCGCGCGAGGGATATCGCATCTGATCCGCGCGGTCACAGAGCGGTCACACGTTCTCTGACCCTCGTGTCACCTTCTGCTCCGTAGAACTGGTGTCAGATCACCAGACTGGAGGAGAGGGATGAGGA (double strand) [updbv7]
binding: binds
